US11767343B2, “Peptide probe for recognition of G-quadruplex and use thereof in detection of G-quadruplex in cell” (Changzhi Medical College, priority 2020, dated 2023)
Read-outs that look alike come from different tables or passages of the source. One block for each molecule: values may come before it.

Experiments:
[1] = test system: DNA of G4 (GGGT)4; experiment: Non-denaturing polyacrylamide gel electrophoresis of G4 DNA binding to proteins; details: for binding to G4 DNAs (new slower band): protein:DNA 2:1 and 6:1, 100 nM G4 DNA, gel with 75 mM KCl
Experimental: After the culture was incubated until OD reach 0.5, the culture was induced with 0.8 mM IPTG and kept for 4 h at 37° C., followed by protein extraction and purification to obtain the proteins monomer, G4P, triplex, and tetrad. The protein extraction was performed by using Capturem™ His-Tagged Purification Miniprep Kit (TAKARA).
The obtained proteins were mixed with the DNA of G4 at a molar concentration ratio of 2:1 and 6:1, respectively, where the DNA of G4 comprises a sequence of (GGGT)4 (SEQ ID NO: 74), with a concentration of 100 nM. The G4 DNAs binding to the proteins were electrophoresed in a non-denaturing polyacrylamide gel containing 75 mM KCl. […] The G4 DNAs moved slower after binding to the proteins, thereby yielding a new band.

[2] = test system: parallel and nonparallel G4s; experiment: ELISA comparison of G4 binding affinity between G4P and monomeric RHAU23; details: FIG. 3
Experimental: (§1) The annealed oligonucleotides were immobilized on a streptavidin-coated plate (Sigma-Aldrich), followed by incubating with G4P or RHAU23 at the indicated concentrations. Detection of bound proteins used an anti-FLAG Mouse Monoclonal Antibody (Transgen Biotech, China), an HRP Conjugated Goat Anti-Mouse IgG (H+L) secondary antibody (Transgen Biotech, China), and a TMB ELISA Substrate (Transgen Biotech, China) according to the manufacturer's instructions. Absorbance was measured at 450 nm on a Multi-Plate Reader (Biotek, USA). Dissociation constants (Kd) were obtained from the binding curves. The standard error of mean values was calculated from three replicates.
A comparison of G4 binding affinity between G4P and a monomeric RHAU23 was further performed. A G4P comprising only one G4-binding domain was termed monomeric RHAU23.

[3] = target: Bcl2; experiment: ELISA binding of G4P to immobilized biotinylated oligonucleotide; details: G4, Mixed parallel and antiparallel, read-out: Kd (nM) ± SD
Experimental: as §1

[4] = target: hTel-3G; experiment: as above; details: intermolecular G4, Mixed parallel and antiparallel, read-out: Kd (nM) ± SD
Experimental: as §1

[5] = target: TERRA3G; experiment: as above; details: intermolecular G4, Parallel, read-out: Kd (nM) ± SD
Experimental: as §1

[6] = target: DRD3; experiment: as above; details: G4, Antiparallel, read-out: Kd (nM) ± SD
Experimental: as §1

[7] = target: c-MYC; experiment: as above; details: G4, Parallel, read-out: Kd (nM) ± SD
Experimental: as §1

[8] = target: HRAS1; experiment: as above; details: G4, Antiparallel, read-out: Kd (nM) ± SD
Experimental: as §1

[9] = target: 3G DNA + 1G RNA; experiment: as above; details: 3/1 DNA/RNA Hybrid G4, Parallel, read-out: Kd (nM) ± SD
Experimental: as §1

[10] = target: SPB1; experiment: as above; details: G4, Antiparallel, read-out: Kd (nM) ± SD
Experimental: as §1

[11] = target: hTel; experiment: as above; details: G4, Mixed parallel and antiparallel, read-out: Kd (nM) ± SD
Experimental: as §1

[12] = target: ABTB2; experiment: as above; details: G4, GVBQ, read-out: Kd (nM) ± SD
Experimental: as §1

[13] = target: TBA; experiment: as above; details: G4, Antiparallel, read-out: Kd (nM) ± SD
Experimental: as §1

[14] = target: MYOG; experiment: as above; details: G4, GVBQ, read-out: Kd (nM) ± SD
Experimental: as §1

[15] = target: C9orf72; experiment: as above; details: G4, Antiparallel, read-out: Kd (nM) ± SD
Experimental: as §1

[16] = target: HT; experiment: as above; details: G4, Mixed parallel and antiparallel, read-out: Kd (nM) ± SD
Experimental: as §1

[17] = target: NRAS RNA; experiment: as above; details: G4, read-out: Kd (nM) ± SD
Experimental: as §1

[18] = target: T2B-1; experiment: as above; details: G4, Bulge, Parallel, read-out: Kd (nM) ± SD
Experimental: as §1

[19] = target: CSTB; experiment: as above; details: G4, Parallel, read-out: Kd (nM) ± SD
Experimental: as §1

[20] = target: TERRA; experiment: as above; details: G4, Parallel, read-out: Kd (nM) ± SD
Experimental: as §1

[21] = target: 2G DNA + 2G RNA; experiment: as above; details: 2/2 DNA/RNA Hybrid G4, Parallel, read-out: Kd (nM) ± SD
Experimental: as §1

[22] = target: C20orf24; experiment: as above; details: G4, Mixed parallel and antiparallel, read-out: Kd (nM) ± SD
Experimental: as §1

[23] = target: G4s; experiment: ELISA binding, summary over the 21 G4s
Experimental: as §1
(§2) Therefore, the following were searched for PQSs of the three well-characterized non-canonical G4s, i.e. G4s with one loop of 8-15 nucleotides (4GL15), G-vacancy-bearing G4s (GVBQ), G4 with a bulge (Bulge), respectively. The G4P had no binding to the non-G4 DNAs or RNAs, including single-stranded DNA (ssDNA), RNA hairpin, DNA: RNA heteroduplex, and i-motif.

[24] = test system: non-G4 DNAs or RNAs; experiment: ELISA binding, summary over non-G4 controls; details: ssDNA, RNA hairpin, DNA: RNA heteroduplex, i-motif
Experimental: as §1, §2

B2: RHAU23: G4P comprising only one G4-binding domain RHAU23; amino acid sequence SEQ ID NO: 5 (protein)
chain: MGSSHHHHHHSSGLVPRGSHMHPGHLKGREIGMWYAKKQGQKNKGTGSGADYKDHDGDYKDHDIDYKDDDDK
modifications: Fully synthetic
discrimination between parallel and nonparallel G4s in binding [2]: only binds parallel, but not nonparallel G4s

B3: G4P: Polypeptide probe: two RHAU23 G4-binding domains, linker of three GTGSGA hexapeptides, C-terminal 3xFLAG tag, N-terminal HIS tag; SEQ ID NO: 4 (protein)
chain: MGSSHHHHHHSSGLVPRGSHMHPGHLKGREIGMWYAKKQGQKNKGTGSGAGTGSGAGTGSGAHPGHLKGREIGMWYAKKQGQKNKGTGSGADYKDHDGDYKDHDIDYKDDDDK
modifications: Fully synthetic
relative affinity with G4s among the proteins ([1]; compared among monomer, G4P, triplex, tetrad): highest affinity
binding to G4 DNAs (new slower band) [1]: binding ability
Kd [3]: 0.9 ± 0.08 nM
Kd [4]: 0.71 ± 0.05 nM
Kd [5]: 0.83 ± 0.05 nM
Kd [6]: 0.31 ± 0.03 nM
Kd [7]: 0.99 ± 0.1 nM
Kd [8]: 3.11 ± 0.25 nM
Kd [9]: 0.59 ± 0.1 nM
Kd [10]: 2.83 ± 0.15 nM
Kd [11]: 0.37 ± 0.03 nM
Kd [12]: 0.59 ± 0.04 nM
Kd [13]: 1.71 ± 0.1 nM
Kd [14]: 0.82 ± 0.05 nM
Kd [15]: 1.89 ± 0.21 nM
Kd [16]: 0.79 ± 0.05 nM
Kd [17]: 0.48 ± 0.03 nM
Kd [18]: 0.34 ± 0.02 nM
Kd [19]: 0.37 ± 0.03 nM
Kd [20]: 1.44 ± 0.11 nM
Kd [21]: 0.42 ± 0.06 nM
Kd [22]: 0.35 ± 0.03 nM
Kd ([23]; 5 of the 21 G4s, read-out: Kd to 5 G4s): 1 to 3 nM
Kd to 16 G4s ([23]; 16 of the 21 G4s): sub-nM
Kd ([23]; range over the 21 G4s, read-out: Kd values for these G4s): 0.31 to 3.11 nM
discrimination between parallel and nonparallel G4s in binding [2]: almost no discrimination between the parallel and nonparallel G4
binding to the non-G4 DNAs or RNAs [24]: no binding

Further lines, results first:

binding to G4 DNAs (new slower band) [1]: binding ability
B1: tetrad: Protein comprising four binding domains RHAU23; amino acid sequence SEQ ID NO: 7 (protein)
chain: MGSSHHHHHHSSGLVPRGSHMHPGHLKGREIGMWYAKKQGQKNKGTGSGAGTGSGAGTGSGAHPGHLKGREIGMWYAKKQGQKNKGTGSGAGTGSGAGTGSGAHPGHLKGREIGMWYAKKQGQKNKGTGSGAGTGSGAGTGSGAHPGHLKGREIGMWYAKKQGQKNKGTGSGADYKDHDGDYKDHDIDYKDDDDK
modifications: Fully synthetic

binding to G4 DNAs (new slower band) [1]: binding ability
B4: triplex: Protein comprising three binding domains RHAU23; amino acid sequence SEQ ID NO: 6 (protein)
chain: MGSSHHHHHHSSGLVPRGSHMHPGHLKGREIGMWYAKKQGQKNKGTGSGAGTGSGAGTGSGAHPGHLKGREIGMWYAKKQGQKNKGTGSGAGTGSGAGTGSGAHPGHLKGREIGMWYAKKQGQKNKGTGSGADYKDHDGDYKDHDIDYKDDDDK
modifications: Fully synthetic
